From patent publication US20110124552A1

Target: mouse CCR2 on mouse cells (splenocytes, T cells, plasma cells, macrophages, EG7 lymphoma cells) (mouse) (UniProt P51683)
Test: cell-based or functional assay

Sequence of UniProt P51683 (P51683 whole entry): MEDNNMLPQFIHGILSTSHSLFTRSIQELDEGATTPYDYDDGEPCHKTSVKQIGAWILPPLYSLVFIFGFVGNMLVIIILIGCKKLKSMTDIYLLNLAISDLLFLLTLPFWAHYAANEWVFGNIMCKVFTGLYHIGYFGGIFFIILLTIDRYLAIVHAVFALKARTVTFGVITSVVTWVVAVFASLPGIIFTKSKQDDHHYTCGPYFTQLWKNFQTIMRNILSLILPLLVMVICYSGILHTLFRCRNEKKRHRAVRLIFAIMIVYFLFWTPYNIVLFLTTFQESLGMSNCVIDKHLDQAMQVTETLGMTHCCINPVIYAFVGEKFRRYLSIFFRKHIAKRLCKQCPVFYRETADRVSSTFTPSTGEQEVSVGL

- CD4 T-cells positive for intracellular IL17: 19%
Substance: recombinant CCL2 (rCCL2, CCL2 1-76) (from UniProt P10148 24-99) (ligand)
- cell death of RA-derived CD4 T-cells, PI/Annexin-V co-staining, 48 h: 15%
